Laboratory results: publication PMC6382783

Key:
[1] = biological target: YbeA-ssrA (Escherichia coli | not stated); experiment: SEC; analytical SEC on an S200 10/300 GL column, 0.5-1 mL/min, molecular mass from Kav against a calibration curve of low molecular weight standards
[2] = biological target: ClpXP (ClpXΔN6 with ClpP14) (Escherichia coli | E. coli) (UniProt P0A6H1)
[3] = biological target: ThiS-YbeA-ssrA (Archaeoglobus fulgidus | Escherichia coli | not stated); experiment: SEC; analytical SEC on an S200 10/300 GL column, 0.5-1 mL/min, molecular mass from Kav against a calibration curve of low molecular weight standards

YbeA-ssrA (enzyme)
stoichiometry N [1]: 2

UCH-L1-ssrA (enzyme)
degradation of PR65/A-ssrA by ClpXP in competition with equimolar UCH-L1-ssrA (5 µM each), SDS-PAGE and densitometry [2]: 2 fold

ThiS-YbeA-ssrA
stoichiometry N [3]: 2
